Measurements as given in the nanobody polyreactivity screen of Harvey et al. (2022).

Assay: yeast display, Sf9 membrane polyspecificity reagent, FACS + sequencing; frameworks hold sequencing errors
How it was run: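 A synthetic nanobody library was expressed on Saccharomyces cerevisiae BJ5465 by galactose induction for 36–48 hours. The library was stained for 1 hour at 4 °C with 10% biotinylated, detergent-solubilized Sf9 membrane reagent and enriched with streptavidin microbeads before FACS. Low and high (top ~1%) gates were set on anti-HA fluorescence for expression and streptavidin fluorescence for reagent binding, and each polyreactivity label reflects the gate of origin.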

Sequence	polyreactivity (PSR sort gate)
QVHLVESGGGLVQAGGSLRLSCAASGSIFFDGNAMGWYRQAPGKERELVAAISVSGGSTYYADSVKGRFTISRDNAKNTVYLQMNSLKPEDTAVYYCAKYPSNSYVPGDYWGQGTQVTVSS	low polyreactivity
QVHLVESGGGLVQAGGSLRLSCAASGSIFFGYAKGWYRQAPGKERELVAGMDTGGSTDYADSVTGRFTISRDNAKNTVYLQMNSLKPEDTAVYYWATYSYGAVTVDYWGQGTQVTVSS	low polyreactivity
QVHLVESGGGLVQAGGSLRLSCAASGSIFFGYTMGWYRQAPGKERELVAAITRRGGSTYYADSVKGRFTISRDNAKNTVYLQMNSLKPVDTAVYYCAAEVRRYVIVPYYYWGQGTQVTVSS	high polyreactivity
QVHLVESGGGLVQAGGSLRLSCAASGSIFGSQNAMGWYRQAPGKERELVAAYYTARGARTYYADSVKGRFTISRDNAKNTVYLQMNSLKPEDTAVYYCAPRRYGRYRYDYWGQGTQVTVSS	low polyreactivity
QVHLVESGGGLVQAGGSLRLSCAASGSIFGSYAMGWYRQAPGKERELVASITRVDSTNYADSVKGRFTISRDNAKNTVYLQMNSLKPEDTAVYYCNAGKTIDYRDGVGYDHWGQGTQVTVSS	low polyreactivity
QVHLVESGGGLVQAGGSLRLSCAASGSIFHKNAMGWYRQAPGKERELVAAITSGGTTYYADSVKGRFTISRDNAKNTVYLLMNSLKPEDTAVYYCNAAKFLYRHGFLSAGDMYYWGQGTQVTVSS	high polyreactivity
QVHLVESGGGLVQAGGSLRLSCAASGSIFKYYAMGWYRQAPGKETELVAAISSGGTTNYADSVKGRFTISRDNAKNTVYFQMNSLKPEDTEVYYCAAYSTYFRRRKWGYDYWGQGTQVTVSS	high polyreactivity
QVHLVESGGGLVQAGGSLRLSCAASGSIFLRYAMGWYRKAPGKERVLFAGITSSGGSTYYADSVQGRFTISRDNAKNTVYLQMNSLKPEDTAVYYCARGLYRIYSPVRYGYWGQGTQVTVSS	high polyreactivity
QVHLVESGGGLVQAGGSLRLSCAASGSIFSYYAMGWYRQAPGKERELVAAISQSGGSTYYSDSVKGRFTISRDNAKNTVYLQMNSLKPEDTAVYYCNSGRGTFKRYTALQYWGQGTQVTVSS	low polyreactivity
QVHLVESGGGLVQAGGSLRLSCAASGSIIGLYAMGWYRQAPGKERELVAYITGGGSTYYADSVKGRFTISRDIAKNTVYLQMNSLKPEDTAVYYCNKRGTEIGYDYWGQGTQVTVLS	low polyreactivity
QVHLVESGGGLVQAGGSLRLSCAASGSILGGNAMGWYRQAPGKERELVAAITFSGGGTYYADSVKGRFTISRDNAKNTVYLQMNSLKPEDTAVYYCAADKDGYTYEFDYWGQGTQVTVSS	low polyreactivity
QVHLVESGGGLVQAGGSLRLSCAASGSISTNYPMGWYRPAPGKERQLVAAISSSGGSTYYADSVKGRFTISRDNAKYTVYLQMNSLKPEDTAVYYCAATYWGRAYQGYRNLRYGYWGQGTQVTVSS	high polyreactivity
QVHLVESGGGLVQAGGSLRLSCAASGSNFARNAMGWYRHAPGKERELVAAITYSGGRTYYADSVKGRFTISRDNAKNTVYLQMNSLKPEDTAVFYCAVKSFSGHGDYWGQGTEVTVSS	low polyreactivity
QVHLVESGGGLVQAGGSLRLSCAASGSNYSYYGMGWYRQAPGKERELVAAITDGDGTNYADSVKGRFTISRDNAKNTVYLQMNSLIPEDTAVYYCNRDFWYGVSPGREFYLYDYWGQGTLVTVSS	low polyreactivity
QVHLVESGGGLVQAGGSLRLSCAASGSTFAGNTMGWYRQAPGKERELVASITSDGSTDYADSVKGRFTISRDNAKNTVYLQMNSLKPEDTAVYYCAIARGLSKMDSWGQGTQVTVSS	low polyreactivity
QVHLVESGGGLVQAGGSLRLSCAASGSTFGTNAMGWYRQAPGKERELVARINSSASTTYADSVKGRFTISRDNAKNTVYLQMNSLKPEDTAVYYCAKSSLNIYDYWGQGTQVTVSS	high polyreactivity
QVHLVESGGGLVQAGGSLRLSCAASGSTFGWYAMGWYRPSPGKERELVAAIRSNGGSTYYADSLKGRFTISRDNAKNTVYLQMNSLKPEDTAVFYCAARGSPSKHHWYDYWGQGTQVTVSS	low polyreactivity
QVHLVESGGGLVQAGGSLRLSCAASGSTFLLNAMGWYRQATGKERELVAGITGSGGRTYYADSVKGRFTISRDNAKNTVYLQMNSLKPEDTAVYYCAAYRNLYWYQHEYWGQGTLVTVSS	low polyreactivity
QVHLVESGGGLVQAGGSLRLSCAASGSTFQSNAMGWYRQAPGKERELVATITQSGATTYYADSVKGRFTISRDNAKNTVYLQMNSLNPEDTAVYYCNVDTYQKRWFWLDLDGGYWGQGTQVTVSS	low polyreactivity
QVHLVESGGGLVQAGGSLRLSCAASGSTFRPYAMGWYRQAPGKERELVAAITGSGGSTYYADSVKGRFTISRDNAKNTVYLQMISLKPEDTAVYYCNAVSTWRYYYWGQGTQVTVSS	high polyreactivity
QVHLVESGGGLVQAGGSLRLSCAASGSTFSYYAMGWYRQAPGKERELVAAISRSGGSTYYPDSVKGRFTISRDNAKNTVYLQMNSLKPEDTADYSCNRYYYTVTREFDYWGQGSQVTVSS	low polyreactivity
QVHLVESGGGLVQAGGSLRLSCAASGSTFYENAMGWYIQAPGKERELVAGISRGGGSTYYADSVKGRFTISRDNAKNTVYLQMNSLKPEDSAVYYCAAGSRVQGGYWGQGTQVTVSS	low polyreactivity

Sequence	polyreactivity (PSR sort gate)
QVHLVESGGGLVQAGGSLRLSCAASGSTFYYNAMGWYRLAPGKERELVASISYSGDSTYYADSVKGRFTISRVNAKNTVYLQMNSLKPEDTAVYYCNASTSFRSHLGFLYDYWGQGTQVTVSS	high polyreactivity
QVHLVESGGGLVQAGGSLRLSCAASGYTFKRNAMGWYRQAPGKERELVAAINIRGSSTYYADSVKGRFTISRDNAKNTVYLQMNSLKPEDTAVYYCNAVPRYGYYWGQGTQVTVSS	high polyreactivity
QVHLVESGGGLVQAGGSLRLSCAASGYTIRRNAMGWYRQAPGKERELVAAITSGGSTDYADSVKGRFTISRDNAKNTVYLQMISLKPEDTAVYYCAADGIYRGAWSTVYESPGYDYWGQGTQVTVSS	low polyreactivity
QVHLVESGGGLVQAGGSLRLSCAATGSTFHYYAMGWYRQAPGKEMELVAAISSSGVSTYYADSVKGRFTISRDNAKNTVYLQMNSLKPEDTAVYYCNSASVFHYRWYYYWGHGTQVTVSS	high polyreactivity
QVHLVESGGGLVQAGGSLRLSCAAYGRIFPLYTMGWYRQAPGKEREFVAAISRTGGRTYYADSVKGRFTISRDNAKNTVYLQMNSLKPEDTAVYYCAAPYFGKRQIREYYWGQGTQVTVSS	high polyreactivity
QVHLVESGGGLVQAGGSLRLSCADYGSNLYYKAMGWYRQAPGKEMQVVAAISTGGRTNYADSVKGRFTISRDNAKNTVYLQMNSLKPEDSAVYYCAAETTTEITDTDYDYWGQGTQVTVSS	low polyreactivity
QVHLVESGGGLVQAGGSLRLSCAPSGFIFDYYTMGWYRQAPGKESELVAAITWSGGRTNYADSVKGRFTISRDNAKYTVYLQMNSLKPEDTAVYYCNARRRARGAPYYLYGYSGQGTQVTVSS	low polyreactivity
QVHLVESGGGLVQAGGSLRLSCAPSGRTFEQNAMGWYRQAPGKERELVASITSVGSTDYADSVKGRFTISRDNAKNTVYLQMNSLKPEDTAVYYCAKTLGSQKYDFDYWGQGTQVTVSS	low polyreactivity
QVHLVESGGGLVQAGGSLRLSCASSGGIFVTYAMGWYRQAPGKERELVAAITSGDSTYYADSVKGRFTISRDNAKNTVYLQMNSLKPEDTAVYYCAVGSTDRVSAQGSYFTYDYWGQGTQVTVSS	low polyreactivity
QVHLVESGGGLVQAGGSLRLSCASSGIIFKTYAMGWYRQAPGKERELVAAISSGGTTYYADSVKGRFTISRDNAKNTVYLQMNSLKPEDTAVYYCAARGYRSGGGYNYWGHGTQVTVSS	high polyreactivity
QVHLVESGGGLVQAGGSLRLSCASSGYIIKYNAMGWYRPAPGKERELVAAISSIGGRTYYADSVKGRFTISRDNAKNTVYLQMNRLKPEDTAVYYCNAVGGRYTGWRYDDWGQGTQVTVSS	high polyreactivity
QVHLVESGGGLVQAGGSLRLSCASTGFTFSRNTMGWYRQPPGKERELVARISASGGSTYYADSVKGRFTISRDNAKNTVYLQMNSLKPEDTAVYYCAAEGFYRSSPVRTYIGYDYWGQGSQVTVSS	high polyreactivity
QVHLVESGGGLVQAGGSLRLSCPASGFTFDNYAMGWYRQPPGKERELVAAINWSGGRTYYADSVKGRFTISRDNAKNTVYLQMNSLKPEDTAVYYCGVPGYVRMDYWGQGTQVTVSS	high polyreactivity
QVHLVESGGGLVQAGGSLRLSCPASGITFEHNAMGWYRQSPGKERELVAAIRWSGGSTYYADSVKGRFTISRDYAKYTVYLQMNSLKPEDTAVYYCAAYKPSTRRYDYWGQGTQVTVSS	high polyreactivity
QVHLVESGGGLVQAGGSLRLSCSASGFTFGSNAMGWYRQAPGKERELVAAINYSGLRTYYADSVKGRFTISRDNAKNTVYLQMNSLKPEDTAVYDCAARTSIVTRLRYGYWGQGTQVTVSS	high polyreactivity
QVHLVESGGGLVQAGGSLRLSCSASGRTFGWNVMGWYRQAPGKERELVAAISGSGGSTYYADSVKGRFTISRDNAKTTVYLQMNSLKPEDTAVYYCAALYGPGREYDYWGQGTQVTVSS	low polyreactivity
QVHLVESGGGLVQAGGSLRLSCSASGSTFNTYAMGWYRQAPGKERELVAAITRGGGGTYYADSVKGRFTISRDNAKNTVYLQMNSLKPEDTAVYYCADKFRYSKYGYWGQGTQVTVSS	high polyreactivity
QVHLVESGGGLVQAGGSLRLSCSASGSTFYAYAMGWYRQARGKERELVARIRWRGGRSYYADSVKGRFTISRDNAKNTVYLQMHSLKPEDTAVYYCAARLYGRYDSQDNYWGQGTQVTVSS	high polyreactivity
QVHLVESGGGLVQAGGSLRLSFAASGRTFLRYDMGCYIQAPGKERELVAADSVKGRFTISRDNAKNTVYLQMNSLKAEDPAVYYCAADSTEYTGDASYIGYDYWGQGTHVTVSS	high polyreactivity
QVHLVESGGGLVQAGGSLRLSSAASGFTFPWYAMGWYRQAPGKERELVATITRGGSTYYADSVKGRFTISRDNAKNTVYLQMNSLKPEDTAVYYCAVTYWRYHSYSPYDYWGQGTQVTVSS	high polyreactivity
QVHLVESGGGLVQAGGSLRLSSAASGSIFYLNAMGWYRQAPGKERELVATISNGGSTNYADSVQGRFTISRDNAKNTVYLQMNSLKPEDTAVYYCDAASGGTVVGEGDYWGQGTQVTVSS	low polyreactivity
